Our source for the EC50 values is patent US20240218057A1 (ROCKEFELLER UNIVERSITY, published 2024).

B1: C863 (antibody, V domains shown)
VH: EVQLLESGGGLVRPGGSLRLSCAASGFIFGSYAMTWVRQAPGKGLEWVSTISGGGTSTDYADSVKGHFTISRDNGKNTLYLQMNSLRAEDTAVYYCVKESDYYMASVNGMDVWGHGTTVTVSS
VL: EIVLTQSPGTLSLSPGERATLSCRARQGVSSTYLAWYQQKPGQAPRLLIYGASSRATGIPDRFSGSGSGADFTLTISRLEPEDFAVYYCQQYGTSPYTFGQGTKLEIK
notes: IgG; V domains only
B2: C864 (antibody, V domains shown)
VH: QVQLVQSGPEVKKPGTSVKVSCKAFQLSFSVSAVQWVRQARGQRLEWIGWIVVGSGNTNYAQKFQERVTITRDMSTSTVYMEVRSLRSEDTAVYYCAAPQCNRTTCYDAFDMWGQGTMVTVSS
VL: EIVLTQSPGTLSLSPGERATLSCRASQSVNSNYLAWYQQKPGQAPRLLIFGPSNRATGIPDRFSGSGSGTDFTLTISRLESEDFAVYYCQQYGSSPWTFGQGTKVEIK
notes: IgG; V domains only
B3: C865 (antibody, V domains shown)
VH: EVQLLESGGGLVQPGGSLRLSCVASRFIFSRYALSWVRQAPGKGLEWVSGISGSGHSTHYADSVTGRFTISRDNSKNTVYLQMSSLRAEDTAVYYCAKGPRSNYDYFESWGQGTLVTVSS
VL: DIQLTQSPSSLSASVGDRVTITCRASQGISSALAWYQQRPGKAPRLLIYDASSLDSGVPSRFSGSGSGTDFTLTISSLQSEDFATYYCQQFINNPLTFGGGTKVEIK
notes: IgG; V domains only
B4: C866 (antibody, V domains shown)
VH: EVQLVESGGGLVQPGRSLRLSCVASGFEFEDYGMHWVRQVPGKGLEWVSGISWNSASVGYADSVRGRFTISRDNAKNSLYLQMNSLRAEDTALYYCGKQINEWSHFLDYWGQGTLVTVSS
VL: DIQLTQSPSSVSASVGDRVTITCRASQGISNWLAWYQKKPGKAPKLLIYATSSLQSGVPSRFSGSGSETDFTLTIRSLQPEDFATYYCQQANSYPLTFGQGTKLEIK
notes: IgG; V domains only
B5: C850 (antibody, V domains shown)
VH: QVQLQESGPGLVKPSETLSLICSVSGVSVSSRNFFWSWIRQPPGKGLEWIGYMSYGGNTNYNPSLKSRVTISIDTSKNQFSLKLSSVTAADTAVYYCARETYYYDRSGYYSSDGFDYWGQGILVTVSS
VL: EIVLTQSPGTLSLSPGERATLSCRASQSITSSSLAWYQQKRGQPPRLLIYGASSRATGIPDRFSGSGSGTDLTLTISRLEPEDFAVYYCQQYGNSPYTFGQGTKLEIK
notes: IgG; V domains only
B6: C869 (antibody, V domains shown)
VH: QVQLVESGGGVVQPGTSLRLSCAASGFTFSSFGMNWVRQAPGKGLEWVAVIFFDGSKTYYADSVKGRFTISRDNSKNTLYLQMNSLRTEDTAVYYCAKGQLRLGEFDDYWGQGTLVTVSS
VL: DIQMTQSPSSLSASVGDRVTITCRASQDIRDDLNWYQHKPGKAPKLLIYTASSLQSGVPSRFSGSGSGTDFTLTISRLQPEDFASYYCLQDHNYPLTFGQGTKLEIK
notes: IgG; V domains only
B7: C867 (antibody, V domains shown)
VH: QVQLQESGPGLVKSSETLSLTCTVSSGSVRSGGYYWSWIRHHPGKGLEWIGYIFYTGITYYNPSLKSRVIVSVDPSKNQFSLNLTSVTAADTAVYYCASTPYTNGGAFHIWGQGTMVTVSS
VL: QSALTQPPSASGSPGQSVTISCTGTSSDVGGHNYVSWYQQFPGKAPKLIIYDVNKRPSGVPDRFSGSKSANTASLTVSGLQAEDEADYHCSSYAGSNNWVFGGGTKLTVL
notes: IgG; V domains only
B8: C894 (antibody, V domains shown)
VH: EVQLVQSGAEVKKPGESLRISCKGSGYSFTGYWISWVRQMPGKGLEWMGRIDPSDSYTNYSPSFEGHVTFSADTALSTAYLQWSSLQASDTAIYFCGRIAPPGRGSYYPTQNYMDVWGKGTTVTVSS
VL: EIVLTQSPGTLSLSPGERATLSCTADQSVPNSYLAWYQHKPGQAPRLLIYGASSRATGIPDRFSGSGSGIDFTLTISRLEPEDFAVYYCQQYGSLLLTFGGGTKVEIK
notes: IgG; V domains only
B9: C871 (antibody, V domains shown)
VH: EVQLVESGGGLIQTGGSLKLSCAASGFIVTNNYMSWVRQAPGKGLEWVSVIYSGGTTYYADSVKGRFTISRDISKNTLYLQMNSLKAEDTAVYYCAREGDVEGISDSWSGYSRDRYYFDHWGQGTLVTVSS
VL: QSALTQPASVSGSPGQSITISCTGTSSDVGGYNYVSWYQQHPGKAPKLMIYDVSNRPPTISNRFSGSKSGNTASLIISGLQPEDEADYYCSSFTSNNTRVFGTGTKVTVL
notes: IgG; V domains only
B10: C870 (antibody, V domains shown)
VH: EVQLVESGGGLVQPGKSLRLSCAGSGFAFSSYHMNWVRQAPGKGLEWVAYISSGSSTIHYADSVKGRFTISRDNAKNSFYLQMNSLRAEDTALYYCARAIVGTKGYMDVWGKGTTVTVSS
VL: QSALTQPASVSGSPGQSVTISCTGTRSDVGSYDLVSWYQLHADKAPKLIIYEVTSRPSGISTRFSGSKSGNTASLTISGLQAEDEADYYCCSYAGTTWLFGGGTRLTVL
notes: IgG; V domains only
B11: C851 (antibody, V domains shown)
VH: QLQLQESGPGLVKTSETLSLTCTVSGGSISSGNSYWGWIRQPPGKGLEWIGDIYYSGSTFYNPSLKSRLTISVDTSKNQFSLKLTSVTAADTAVYYCARRGGRTPVRFNYGGDVWGQGTTVTVSS
VL: DIQMTQSPSSLSASVGDRVTITCQASQDISRYLNWFQHKPGKAPKLLIYDASNLEAGVPSRFTGSGSGTEFTFTISSLQPEDFAIYFCQQYDSLPLTFGGGTKVEI
notes: IgG; V domains only
B12: C847 (antibody, V domains shown)
VH: QVQLVESGGGVVQPGGSLRLSCGASGFTFSSYAMHWVRQAPGEGLEWVAVILYDGAGKFYADSVKGRFTISRDNSKNTLYLQMNSLRAEDTAVYYCARDYGDYVTHFDYWGQGALVTVSS
VL: DIQMTQSPSSLSASVGDRVTITCRASQSISSYLNWYQQKPGKAPKLLIYTASSLQSGVPSRFSGSGSGTDFTLTITSLQPEDFATYYCQQSYNTPPWTFGQGTKVEIK
notes: IgG; V domains only
B13: C868 (antibody, V domains shown)
VH: QVQLQESGPRLVKPSETLSLTCIVSGGSVSSNNFYWSWIRQPPGKRLEWIGYFYNSGSSKYNPSLKSRVTISGDTSKNQFSLKLSSVTAADTAVYYCARETFFYDRTGHYKSDGFDVWGQGTMVTVSS
VL: DIQMTQSPSTLSASVGDRVTISCRASQNISSWLAWYQQEAGKAPKLLIYKASSLESGVPSRFSGSGSGTEFTLTISSLQPGDFATYYCQQYNIYSYTFGQGTKLEIK
notes: IgG; V domains only
B14: C854 (antibody, V domains shown)
VH: EVQLVESGGGLIQPGGSLRLSCAASGITVSSNYMNWVRQAPGKGLEWVSVLYAGGSTFYADSVKGRFTISRDDSKNTLYLQMDSLRAEDTAVYYCARDLSSSGGFDYWGQGTLVTVSS
VL: EIVLTQSPGTLSLSPGERATLSCRASQSVSSSYLAWYQQKPGQAPRLLIYGASSRATGIPDRFSGRGSGTDFTLTISRLEPEDFAVYYCQQYGSLYTFGQGTKLEIK
notes: IgG; V domains only
B15: C862 (antibody, V domains shown)
VH: QVQLQESGPGLVKPSQTLSLTCTVSGASISSSEHYWSWIRQPPGKGLEWIGYISYSGGTYQNPSLQSRMTLSMDASKNQFSLKLSSVTAADTAVYFCARLNTMIVMINGVFDVWGQGTMVTVSS
VL: DIQMTQSPSSLSAFVGDRVTITCQASQDINKYVNWYQQKPGKAPKLLIYDASNLQTGVPSRFSGSGSGTHFTFTISSLQPEDFATYYCQEYDNLFSISFGQGTRLEIK
notes: IgG; V domains only

The assay has as its target T1, SARS-COV-2 RBD (SARS-COV-2, UniProt P0DTC2 319-539).
T1 construct: also called WT RBD
Briefly: ELISA, RBD coated. (In general: An ELISA detects its analyte on a solid surface through an enzyme-linked reagent.)
The term EC50 denotes the concentration at which the effect is half-maximal. High values mean weaker potency, low ones greater potency. In turn, B1 registered a concentration giving a half-maximal response (EC50) of 3.31 ng/mL.
Under B2 stands 1.89 ng/mL; under B3, 2.14 ng/mL.
Under B4 stands 2 ng/mL.
Regarding B5, a half-maximal response (EC50) required 3.7 ng/mL. Compared with the last molecule, the EC50 is about 1.9-fold higher.
Under B6 stands 3.14 ng/mL; under B7, 2.71 ng/mL.
The molecule B8 registered a concentration giving a half-maximal response (EC50) of 16.8 ng/mL.
With B9 the figure was 1.52 ng/mL.
With B10 the figure was 2.17 ng/mL; with B11, 2.83 ng/mL; with B12, 3.06 ng/mL.
On to B13, for which the midpoint of the response, the EC50, lay at 3.39 ng/mL. The EC50 values of the last two molecules are within 1.5-fold of each other.
Under B14 stands 2.57 ng/mL.
Under B15 stands 2.14 ng/mL.
